The experiment concerns the target GFP-SR-BI (scavenger receptor BI) on CHO cells (UniProt Q8WTV0).
Sequence of UniProt Q8WTV0 (Q8WTV0 whole entry): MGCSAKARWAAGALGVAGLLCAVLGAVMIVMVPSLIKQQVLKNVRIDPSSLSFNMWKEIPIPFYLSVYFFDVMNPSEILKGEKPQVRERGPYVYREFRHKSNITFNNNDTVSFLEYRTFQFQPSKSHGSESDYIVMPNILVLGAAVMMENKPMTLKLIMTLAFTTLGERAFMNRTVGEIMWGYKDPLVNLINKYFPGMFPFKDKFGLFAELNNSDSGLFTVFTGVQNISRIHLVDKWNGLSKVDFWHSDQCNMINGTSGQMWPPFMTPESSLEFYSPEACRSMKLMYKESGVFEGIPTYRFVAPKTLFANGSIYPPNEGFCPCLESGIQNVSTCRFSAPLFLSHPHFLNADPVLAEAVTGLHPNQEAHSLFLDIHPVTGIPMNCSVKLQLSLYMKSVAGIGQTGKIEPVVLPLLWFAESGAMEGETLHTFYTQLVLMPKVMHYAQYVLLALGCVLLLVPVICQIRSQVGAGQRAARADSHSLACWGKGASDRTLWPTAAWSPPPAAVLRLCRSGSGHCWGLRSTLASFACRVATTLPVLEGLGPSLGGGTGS

As to “Alexa Fluor 568 labeled human high-density lipoprotein (from UniProt P02647 19-267) (complex)”, the AF568-HDL internalization by HCCMECs after pre-treatment with 10 ug/mL blocking anti-SR-BI scFv (percent decrease) is 57%.

These data come from article PMC5670330.
